What was measured:
[1] = biological target: ZIM3 reprogrammed with array DPH1_151 (synthetic construct, UniProt Q96PE6 1-166); test: Zn; HEK293T, RT-qPCR 3 days after transfection
[2] = biological target: T1, ZFN pair 20BC_selected + 20ED_selected (synthetic construct, UniProt P14870;P14870 384-579;384-579); test: Zn; U2OS eGFP disruption, 3 days after nucleofection; settings: tags: N-terminal 3xFLAG and SV40 NLS (kept in the assay, left out here); copies: 1;1
T1 chain 1: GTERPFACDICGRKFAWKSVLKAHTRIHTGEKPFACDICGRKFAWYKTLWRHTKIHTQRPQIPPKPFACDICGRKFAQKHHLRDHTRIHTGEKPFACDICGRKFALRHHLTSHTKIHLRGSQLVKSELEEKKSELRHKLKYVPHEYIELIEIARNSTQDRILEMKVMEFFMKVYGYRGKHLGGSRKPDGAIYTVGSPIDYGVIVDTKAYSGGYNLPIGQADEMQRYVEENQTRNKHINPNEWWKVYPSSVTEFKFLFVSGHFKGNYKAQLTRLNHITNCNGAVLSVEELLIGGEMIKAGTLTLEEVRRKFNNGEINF
T1 chain 2: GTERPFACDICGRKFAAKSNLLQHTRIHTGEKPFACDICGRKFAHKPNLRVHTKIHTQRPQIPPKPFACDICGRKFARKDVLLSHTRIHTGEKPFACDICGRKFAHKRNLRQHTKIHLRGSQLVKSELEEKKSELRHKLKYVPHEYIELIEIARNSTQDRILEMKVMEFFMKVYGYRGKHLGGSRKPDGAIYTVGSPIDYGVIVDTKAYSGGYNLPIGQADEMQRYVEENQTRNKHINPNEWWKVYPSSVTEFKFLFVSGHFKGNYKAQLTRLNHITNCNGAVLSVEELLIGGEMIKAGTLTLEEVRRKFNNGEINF

[3] = biological target: ZFN pair 20BC_designed + 20ED_designed (synthetic construct, UniProt P14870;P14870 384-579;384-579); test: as above; settings: tags: N-terminal 3xFLAG and SV40 NLS (kept in the assay, left out here); copies: 1;1
[4] = biological target: KLF6 reprogrammed with array CDKN1C_102 (synthetic construct, UniProt Q99612 1-199); test: Zn; HEK293T, RT-qPCR 3 days after transfection
[5] = biological target: KLF6 reprogrammed with array CDKN1C_125 (synthetic construct, UniProt Q99612 1-199); test: Zn; HEK293T, RT-qPCR 3 days after transfection
[6] = biological target: KLF6 reprogrammed with array CDKN1C_125 F1-6 (synthetic construct, UniProt Q99612 1-199); test: Zn; HEK293T, RT-qPCR 3 days after transfection
[7] = biological target: ZFN pair 1BC_selected + 1ED_selected (synthetic construct, UniProt P14870;P14870 384-579;384-579); test: Zn; U2OS eGFP disruption, 3 days after nucleofection; settings: tags: N-terminal 3xFLAG and SV40 NLS (kept in the assay, left out here); copies: 1;1
[8] = biological target: ZFN pair 1BC_design + 1ED_design (synthetic construct, UniProt P14870;P14870 384-579;384-579); test: as above; settings: tags: N-terminal 3xFLAG and SV40 NLS (kept in the assay, left out here); copies: 1;1
[9] = biological target: ZIM3 reprogrammed with array DPH1_75 (synthetic construct, UniProt Q96PE6 1-166); test: Zn; HEK293T, RT-qPCR 3 days after transfection
[10] = biological target: KLF6 reprogrammed with array CDKN1C_224 (synthetic construct, UniProt Q99612 1-199); test: Zn; HEK293T, RT-qPCR 3 days after transfection
[11] = biological target: T2, KLF6 reprogrammed with array CDKN1C_76 (synthetic construct, UniProt Q99612 1-199); test: Zn; HEK293T, RT-qPCR 3 days after transfection
T2 chain: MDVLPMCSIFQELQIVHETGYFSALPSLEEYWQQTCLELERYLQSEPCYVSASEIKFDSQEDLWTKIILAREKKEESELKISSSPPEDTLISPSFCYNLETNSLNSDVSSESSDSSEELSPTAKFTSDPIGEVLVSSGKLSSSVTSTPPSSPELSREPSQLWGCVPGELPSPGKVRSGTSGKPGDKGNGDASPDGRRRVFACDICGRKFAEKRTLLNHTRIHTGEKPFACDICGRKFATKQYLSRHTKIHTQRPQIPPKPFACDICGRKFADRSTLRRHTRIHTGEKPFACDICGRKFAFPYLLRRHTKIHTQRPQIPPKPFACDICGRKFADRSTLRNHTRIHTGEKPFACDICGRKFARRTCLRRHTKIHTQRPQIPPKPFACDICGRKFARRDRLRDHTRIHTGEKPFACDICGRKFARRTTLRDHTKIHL

[12] = biological target: ZIM3 reprogrammed with array DPH1_201 (synthetic construct, UniProt Q96PE6 1-166); test: Zn; HEK293T, RT-qPCR 3 days after transfection
[13] = biological target: ZIM3 reprogrammed with array DPH1_126 (synthetic construct, UniProt Q96PE6 1-166); test: Zn; HEK293T, RT-qPCR 3 days after transfection
[14] = biological target: ZIM3 reprogrammed with array DPH1_24 (synthetic construct, UniProt Q96PE6 1-166); test: Zn; HEK293T, RT-qPCR 3 days after transfection
[15] = biological target: T3, KLF6 reprogrammed with array CDKN1C_172 (synthetic construct, UniProt Q99612 1-199); test: Zn; HEK293T, RT-qPCR 3 days after transfection
T3 chain: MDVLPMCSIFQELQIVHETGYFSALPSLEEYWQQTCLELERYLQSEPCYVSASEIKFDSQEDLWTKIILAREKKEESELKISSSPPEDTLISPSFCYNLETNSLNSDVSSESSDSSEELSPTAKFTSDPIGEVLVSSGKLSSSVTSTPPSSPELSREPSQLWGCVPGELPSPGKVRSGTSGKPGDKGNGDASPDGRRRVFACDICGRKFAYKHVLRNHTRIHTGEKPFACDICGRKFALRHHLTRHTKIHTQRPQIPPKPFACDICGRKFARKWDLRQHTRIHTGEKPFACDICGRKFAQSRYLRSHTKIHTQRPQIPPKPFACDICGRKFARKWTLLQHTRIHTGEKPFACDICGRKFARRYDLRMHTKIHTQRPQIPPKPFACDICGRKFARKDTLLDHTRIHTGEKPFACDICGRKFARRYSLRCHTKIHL

[16] = biological target: ZIM3 reprogrammed with array Tet3 Rev (synthetic construct, UniProt Q96PE6 1-166); test: Zn; HEK293T, 7x tetO CMV eGFP reporter
[17] = biological target: T4, KLF6 reprogrammed with array Tet4 Rev (synthetic construct, UniProt Q99612 1-199); test: Zn; HEK293T, 7x tetO minimal CMV GFP reporter
T4 chain: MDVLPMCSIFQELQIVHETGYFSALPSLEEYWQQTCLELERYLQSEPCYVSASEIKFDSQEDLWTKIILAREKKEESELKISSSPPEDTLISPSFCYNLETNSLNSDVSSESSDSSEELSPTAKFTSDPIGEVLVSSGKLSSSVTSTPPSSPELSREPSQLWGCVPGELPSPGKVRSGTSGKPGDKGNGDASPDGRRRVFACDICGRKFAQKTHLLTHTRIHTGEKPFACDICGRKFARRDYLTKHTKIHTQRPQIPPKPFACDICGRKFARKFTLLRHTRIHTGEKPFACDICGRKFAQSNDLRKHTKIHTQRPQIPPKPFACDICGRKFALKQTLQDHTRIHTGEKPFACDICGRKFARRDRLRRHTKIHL

[18] = biological target: T5, KLF6 reprogrammed with array Tet3 Rev (synthetic construct, UniProt Q99612 1-199); test: Zn; HEK293T, 7x tetO minimal CMV GFP reporter
T5 chain: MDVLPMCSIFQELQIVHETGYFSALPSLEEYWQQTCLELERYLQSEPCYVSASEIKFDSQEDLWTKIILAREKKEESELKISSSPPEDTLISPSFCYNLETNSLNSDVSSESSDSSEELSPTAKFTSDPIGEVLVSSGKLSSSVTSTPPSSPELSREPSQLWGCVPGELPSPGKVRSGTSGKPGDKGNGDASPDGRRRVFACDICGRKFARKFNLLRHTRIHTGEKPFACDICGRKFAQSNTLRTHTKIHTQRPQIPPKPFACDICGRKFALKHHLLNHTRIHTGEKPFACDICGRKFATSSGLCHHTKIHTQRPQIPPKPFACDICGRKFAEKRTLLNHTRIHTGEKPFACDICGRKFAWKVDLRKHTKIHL

[19] = biological target: ZIM3 reprogrammed with array DPH1_99 (synthetic construct, UniProt Q96PE6 1-166); test: Zn; HEK293T, RT-qPCR 3 days after transfection
[20] = biological target: KLF6 reprogrammed with array CDKN1C_150 (synthetic construct, UniProt Q99612 1-199); test: Zn; HEK293T, RT-qPCR 3 days after transfection
[21] = biological target: ZIM3 reprogrammed with array DPH1_51 (synthetic construct, UniProt Q96PE6 1-166); test: Zn; HEK293T, RT-qPCR 3 days after transfection
[22] = biological target: ZIM3 reprogrammed with array DPH1_225 (synthetic construct, UniProt Q96PE6 1-166); test: Zn; HEK293T, RT-qPCR 3 days after transfection
ZIM3 reprogrammed with array DPH1_225, sequence (Q96PE6 other isoform, or with tags, fused parts or gaps): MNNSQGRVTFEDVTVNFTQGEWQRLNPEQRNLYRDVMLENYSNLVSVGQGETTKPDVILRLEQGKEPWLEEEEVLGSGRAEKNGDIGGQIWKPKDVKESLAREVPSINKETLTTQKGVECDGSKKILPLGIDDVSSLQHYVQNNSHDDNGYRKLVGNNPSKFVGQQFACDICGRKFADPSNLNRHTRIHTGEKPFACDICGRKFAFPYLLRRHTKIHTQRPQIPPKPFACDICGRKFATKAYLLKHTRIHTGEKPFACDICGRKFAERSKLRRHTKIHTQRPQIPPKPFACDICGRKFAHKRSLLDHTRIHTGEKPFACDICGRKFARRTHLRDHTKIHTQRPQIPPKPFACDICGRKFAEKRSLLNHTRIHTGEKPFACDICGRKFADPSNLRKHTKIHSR

ZIM3 reprogrammed with array DPH1_201, sequence (Q96PE6 other isoform, or with tags, fused parts or gaps): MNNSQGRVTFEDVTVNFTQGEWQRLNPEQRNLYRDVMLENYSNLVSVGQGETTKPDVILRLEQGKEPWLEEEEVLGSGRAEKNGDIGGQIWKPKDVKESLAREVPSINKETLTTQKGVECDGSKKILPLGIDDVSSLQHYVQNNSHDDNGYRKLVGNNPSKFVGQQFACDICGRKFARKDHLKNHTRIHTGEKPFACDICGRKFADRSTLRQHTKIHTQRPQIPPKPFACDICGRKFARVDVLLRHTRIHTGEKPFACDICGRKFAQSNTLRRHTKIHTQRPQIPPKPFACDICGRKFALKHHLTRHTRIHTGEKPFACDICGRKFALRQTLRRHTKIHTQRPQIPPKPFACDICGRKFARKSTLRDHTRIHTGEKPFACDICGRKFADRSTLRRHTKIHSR
ZIM3 reprogrammed with array DPH1_75, sequence (Q96PE6 other isoform, or with tags, fused parts or gaps): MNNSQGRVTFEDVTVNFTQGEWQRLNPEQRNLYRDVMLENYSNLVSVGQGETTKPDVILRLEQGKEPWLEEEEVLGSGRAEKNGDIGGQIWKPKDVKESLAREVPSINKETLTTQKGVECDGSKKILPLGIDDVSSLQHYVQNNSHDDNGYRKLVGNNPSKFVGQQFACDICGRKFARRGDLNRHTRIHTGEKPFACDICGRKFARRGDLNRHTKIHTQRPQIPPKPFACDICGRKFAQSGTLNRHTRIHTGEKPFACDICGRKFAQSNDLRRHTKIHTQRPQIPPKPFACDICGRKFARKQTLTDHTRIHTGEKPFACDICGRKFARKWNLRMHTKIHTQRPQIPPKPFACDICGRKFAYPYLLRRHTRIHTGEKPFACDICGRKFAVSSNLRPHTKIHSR
ZIM3 reprogrammed with array DPH1_151, sequence (Q96PE6 other isoform, or with tags, fused parts or gaps): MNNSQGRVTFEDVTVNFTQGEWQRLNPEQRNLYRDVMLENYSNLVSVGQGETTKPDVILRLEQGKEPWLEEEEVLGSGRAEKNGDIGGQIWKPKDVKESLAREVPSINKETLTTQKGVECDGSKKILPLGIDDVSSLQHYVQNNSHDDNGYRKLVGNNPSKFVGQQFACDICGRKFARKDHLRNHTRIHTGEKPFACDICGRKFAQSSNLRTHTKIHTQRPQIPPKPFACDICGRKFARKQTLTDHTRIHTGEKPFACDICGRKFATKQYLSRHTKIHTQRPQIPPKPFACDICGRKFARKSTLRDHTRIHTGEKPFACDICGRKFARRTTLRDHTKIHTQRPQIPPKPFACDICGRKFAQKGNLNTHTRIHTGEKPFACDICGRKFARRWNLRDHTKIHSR
ZIM3 reprogrammed with array DPH1_51, sequence (Q96PE6 other isoform, or with tags, fused parts or gaps): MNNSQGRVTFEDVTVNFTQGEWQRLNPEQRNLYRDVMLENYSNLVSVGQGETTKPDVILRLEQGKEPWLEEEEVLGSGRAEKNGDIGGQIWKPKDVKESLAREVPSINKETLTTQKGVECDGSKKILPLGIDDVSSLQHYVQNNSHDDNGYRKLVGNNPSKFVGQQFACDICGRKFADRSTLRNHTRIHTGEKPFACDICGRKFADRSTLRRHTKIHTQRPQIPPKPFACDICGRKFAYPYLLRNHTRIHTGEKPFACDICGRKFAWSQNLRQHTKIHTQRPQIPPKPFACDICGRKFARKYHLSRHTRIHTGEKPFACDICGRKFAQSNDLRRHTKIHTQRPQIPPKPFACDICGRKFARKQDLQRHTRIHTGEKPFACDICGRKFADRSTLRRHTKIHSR
ZIM3 reprogrammed with array Tet3 Rev, sequence (Q96PE6 other isoform, or with tags, fused parts or gaps): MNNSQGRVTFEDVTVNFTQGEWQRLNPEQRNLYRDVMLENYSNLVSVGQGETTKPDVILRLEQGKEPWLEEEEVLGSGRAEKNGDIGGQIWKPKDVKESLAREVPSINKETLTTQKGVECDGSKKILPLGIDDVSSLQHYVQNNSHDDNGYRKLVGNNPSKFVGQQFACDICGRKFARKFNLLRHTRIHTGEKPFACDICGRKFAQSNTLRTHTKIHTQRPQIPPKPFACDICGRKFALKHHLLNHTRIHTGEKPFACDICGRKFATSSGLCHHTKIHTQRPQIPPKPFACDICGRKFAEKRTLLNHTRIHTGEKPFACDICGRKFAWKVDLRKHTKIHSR
ZIM3 reprogrammed with array DPH1_126, sequence (Q96PE6 other isoform, or with tags, fused parts or gaps): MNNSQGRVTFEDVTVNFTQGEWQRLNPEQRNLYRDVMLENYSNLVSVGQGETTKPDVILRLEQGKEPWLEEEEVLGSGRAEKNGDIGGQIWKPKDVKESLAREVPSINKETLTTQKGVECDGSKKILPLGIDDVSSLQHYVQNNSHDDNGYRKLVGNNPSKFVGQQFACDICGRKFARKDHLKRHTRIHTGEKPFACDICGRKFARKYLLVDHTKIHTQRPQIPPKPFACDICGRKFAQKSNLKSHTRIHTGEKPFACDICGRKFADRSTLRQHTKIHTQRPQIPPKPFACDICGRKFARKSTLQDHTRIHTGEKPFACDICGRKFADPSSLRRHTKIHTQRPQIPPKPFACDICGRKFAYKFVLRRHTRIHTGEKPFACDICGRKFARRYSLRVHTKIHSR
ZIM3 reprogrammed with array DPH1_24, sequence (Q96PE6 other isoform, or with tags, fused parts or gaps): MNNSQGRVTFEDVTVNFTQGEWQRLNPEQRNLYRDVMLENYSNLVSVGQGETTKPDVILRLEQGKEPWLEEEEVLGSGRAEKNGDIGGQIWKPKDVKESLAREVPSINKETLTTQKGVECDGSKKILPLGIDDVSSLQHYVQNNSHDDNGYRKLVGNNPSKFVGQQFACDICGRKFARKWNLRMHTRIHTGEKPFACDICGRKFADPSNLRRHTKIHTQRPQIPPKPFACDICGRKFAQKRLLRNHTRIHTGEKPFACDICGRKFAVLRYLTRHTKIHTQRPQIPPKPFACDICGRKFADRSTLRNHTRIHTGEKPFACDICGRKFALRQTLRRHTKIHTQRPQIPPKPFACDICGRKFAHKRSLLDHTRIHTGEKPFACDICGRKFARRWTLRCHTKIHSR
ZIM3 reprogrammed with array DPH1_99, sequence (Q96PE6 other isoform, or with tags, fused parts or gaps): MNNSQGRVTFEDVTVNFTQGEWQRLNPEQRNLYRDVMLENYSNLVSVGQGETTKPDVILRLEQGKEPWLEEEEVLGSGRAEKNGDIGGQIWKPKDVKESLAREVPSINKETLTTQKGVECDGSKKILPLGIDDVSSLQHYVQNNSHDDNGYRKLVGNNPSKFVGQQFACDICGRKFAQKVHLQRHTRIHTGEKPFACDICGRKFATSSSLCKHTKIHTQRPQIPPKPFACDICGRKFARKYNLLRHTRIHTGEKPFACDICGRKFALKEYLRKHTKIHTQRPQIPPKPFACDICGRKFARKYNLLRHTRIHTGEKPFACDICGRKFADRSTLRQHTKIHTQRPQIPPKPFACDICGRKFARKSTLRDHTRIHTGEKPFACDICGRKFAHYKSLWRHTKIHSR

B1: DPH1_151 (dsDNA)
DNA 1: GAGAAAGGCGCCGCCGCCGTTAAAGGGG
DNA 2: CCCCTTTAACGGCGGCGGCGCCTTTCTC
binding signal [1]: ~0.7 relative expression (lower = more activity, repressor)

B2: eGFP site 20 (8 fingers) (dsDNA)
DNA 1: GAAGGGCATCGACTTCAAGGAGGACGGCAACATC
DNA 2: GATGTTGCCGTCCTCCTTGAAGTCGATGCCCTTC
binding signal [2]: ~69 % GFP-negative cells (higher = more activity) | binding signal [3]: ~17 % GFP-negative cells (higher = more activity)

B3: CDKN1C_102 (dsDNA)
DNA 1: CGCCCCCGGTGGGTGTGCGCGCGGCCAA
DNA 2: TTGGCCGCGCGCACACCCACCGGGGGCG
binding signal [4]: ~2.5 relative expression (higher = more activity)

B4: CDKN1C_125 (dsDNA)
DNA 1: GCCAATGGGCGGTGCGCGGGGGCCGGGC
DNA 2: GCCCGGCCCCCGCGCACCGCCCATTGGC
binding signal [5]: ~43 relative expression (higher = more activity) | binding signal [6]: ~16.5 relative expression (higher = more activity)

B5: eGFP site 1 (8 fingers) (dsDNA)
DNA 1: TGTTCACCGGGGTGGTGCCCATCCTGGTCGAGCT
DNA 2: AGCTCGACCAGGATGGGCACCACCCCGGTGAACA
binding signal [7]: ~53 % GFP-negative cells (higher = more activity) | binding signal [8]: ~35 % GFP-negative cells (higher = more activity)

B6: DPH1_75 (dsDNA)
DNA 1: GAGGGCGCAGCGTTCCAGCACCCACCTC
DNA 2: GAGGTGGGTGCTGGAACGCTGCGCCCTC
binding signal [9]: ~0.62 relative expression (lower = more activity, repressor)

B7: CDKN1C_224 (dsDNA)
DNA 1: GCTAATCGCGGCCGGGCCCGCGCGCACG
DNA 2: CGTGCGCGCGGGCCCGGCCGCGATTAGC
binding signal [10]: ~2.5 relative expression (higher = more activity)

B8: CDKN1C_76 (dsDNA)
DNA 1: GCGCGCCCCGGCCGCGCGCCCCGCCCCG
DNA 2: CGGGGCGGGGCGCGCGGCCGGGGCGCGC
binding signal [11]: ~2 relative expression (higher = more activity)

B9: DPH1_201 (dsDNA)
DNA 1: ACCCCGAGCTGGTGACAGCGGCCCAAGG
DNA 2: CCTTGGGCCGCTGTCACCAGCTCGGGGT
binding signal [12]: ~0.43 relative expression (lower = more activity, repressor)

B10: DPH1_126 (dsDNA)
DNA 1: GGGGTTGGTCCTGTCCCTAACTTGGGGG
DNA 2: CCCCCAAGTTAGGGACAGGACCAACCCC
binding signal [13]: ~0.14 relative expression (lower = more activity, repressor)

B11: DPH1_24 (dsDNA)
DNA 1: CTGCTCCGCTGCCCCGGATACGACCAGC
DNA 2: GCTGGTCGTATCCGGGGCAGCGGAGCAG
binding signal [14]: ~0.27 relative expression (lower = more activity, repressor)

B12: CDKN1C_172 (dsDNA)
DNA 1: GGGGCGGCCGCCAATCGCCGTGGTGTTG
DNA 2: CAACACCACGGCGATTGGCGGCCGCCCC
binding signal [15]: ~3.3 relative expression (higher = more activity)

B13: tetO (dsDNA)
DNA 1: TCTCCCTATCAGTGATAGAGAC
DNA 2: GTCTCTATCACTGATAGGGAGA
binding signal [16]: ~0.23 normalised eGFP fluorescence (lower = more activity, repressor) | binding signal [17]: ~2500 mean GFP fluorescence (higher = more activity) | binding signal [18]: ~41000 mean GFP fluorescence (higher = more activity)

B14: DPH1_99 (dsDNA)
DNA 1: GCCCCGCCCCGAGATGCGAGGTCTGGAG
DNA 2: CTCCAGACCTCGCATCTCGGGGCGGGGC
binding signal [19]: ~0.68 relative expression (lower = more activity, repressor)

B15: CDKN1C_150 (dsDNA)
DNA 1: GGCCGCGGCGGGGCGGGGCAGCGGGGCG
DNA 2: CGCCCCGCTGCCCCGCCCCGCCGCGGCC
binding signal [20]: ~9 relative expression (higher = more activity)

B16: DPH1_51 (dsDNA)
DNA 1: ACCTCTGCCAGGGCCGTCTCGGCCGCCC
DNA 2: GGGCGGCCGAGACGGCCCTGGCAGAGGT
binding signal [21]: ~0.61 relative expression (lower = more activity, repressor)

B17: DPH1_225 (dsDNA)
DNA 1: TACCCCTGGGCTCCGGCTGACAGCGACC
DNA 2: GGTCGCTGTCAGCCGGAGCCCAGGGGTA
binding signal [22]: ~0.62 relative expression (lower = more activity, repressor)
